Experimental findings from patent US12539289B2, “Phorbol ester compositions and methods of use for treating or reducing the duration of cytopenia” (BIOSUCCESS BIOTECH CO., LTD., priority 2014, dated 2026) are described below.

In assay [1] the test system is Drug Induced Cytopenia. The assay can be described thus: Drug induced cytopenia treated by TPA: blood cell counts after DNR + Ara-C. Type of assay: in vivo, mice. The following applies: n = 10. Here is the method: Ninety (90) adult mice were randomly assigned to 9 groups (10 mice per group). No drug was administered in Control group. Model group was given DNR (6 mg/kg)+Ara-C (150 mg/kg) on Day 0. The rest of the 7 groups were given DNR (6 mg/kg)+Ara-C (150 mg/kg) on Day 0, and each group on Day 7, Day 8, and Day 9 was administered with one of the following drugs: G-CSF (10 μg/kg), EPO (500 IU/kg), TPA (12.5 μg/kg), TPA (25 μg/kg), TPA (50 μg/kg), TPA (12.5 μg/kg)+GCSF (10 μg/kg), or TPA (12.5 μg/kg)+EPO (500 IU/kg).

Assay [2] concerns bone marrow stromal cells (BMSCs) from healthy persons. The assay can be described thus: BMSC proliferation or inhibition, CCK8 method, healthy persons. The format is cell-based, human. The note with it: healthy persons. The method, then: (§1) To explore the effect of TPA alone or combined rhG-CSF on bone marrow hematopoietic cells proliferation and colony formation ability which from patients of acute myeloid leukemia (AML) in the period of bone marrow suppression in vitro and to observe the effect of TPA on bone marrow stromal cells(BMSCs) proliferation or inhibition from patients of AML in the period of myelosuppression and the healthy persons.
(§2) • 1) Human bone marrow cells from the same AML patient after chemotherapy were cultured by methyl cellulose semi-solid culture medium. Groups: Blank, TPA (10 ng/ml), G-CSF (50 ng/ml), TPA (10 ng/ml)+GCSF (50 ng/ml). The experiments were repeated for 4 times. • 2) The stroma cells of bone marrow from the healthy human and the AML patient after chemotherapy were cultured by methyl cellulose semi-solid culture medium. Different TPA concentrations were added. Groups: Blank, TPA (0.1 ng/ml), TPA (1.0 ng/ml), TPA (5 ng/ml), TPA (10 ng/ml), TPA (20 ng/ml), TPA (30 ng/ml). • 3) Cultivation of BMSCs from healthy persons and patients of AML in the bone marrow suppression phase in vitro, added to TPA of different concentrations, 0.1 ng/ml, 1.0 ng/ml, 5 ng/ml, 10 ng/ml, 20 ng/ml, 30 ng/ml, and set up a control to detect cell proliferation or inhibition with CCK8 method. Results and Conclusion: • 1. […]
In general terms: Tetrazolium assays rely on reduction of a dye to a coloured formazan, in cell work by metabolically active cells.

Assay [3] concerns neutropenia. The assay is described as follows: Duration of neutropenia after high dose chemotherapy. The format is in vivo. The note with it: stated 'for example'. From the text:
For example, the duration of neutropenia after high dose chemotherapy and treatment with GCSF is, for example, about 24±3 days. The combination of TPA and GCSF reduces the duration of neutropenia to about 15±3 days, or about a 25% to 50% reduction in the duration of neutropenia.

Assay [4] concerns bone marrow stromal cells (BMSCs) from patients of AML in the bone marrow suppression phase. The assay is described as follows: BMSC proliferation or inhibition, CCK8 method, AML patients. Type of assay: cell-based, human. Here is the method:
as §1, §2

In assay [5] the test system is Human bone marrow cells from the same AML patient after chemotherapy. The assay is described as follows: Colony formation of bone marrow hematopoietic cells in methyl cellulose semi-solid culture medium. Type of assay: cell-based. Here is the method: as §1
• 1) Human bone marrow cells from the same AML patient after chemotherapy were cultured by methyl cellulose semi-solid culture medium. Groups: Blank, TPA (10 ng/ml), G-CSF (50 ng/ml), TPA (10 ng/ml)+GCSF (50 ng/ml). The experiments were repeated for 4 times. • 2) The stroma cells of bone marrow from the healthy human and the AML patient after chemotherapy were cultured by methyl cellulose semi-solid culture medium. Different TPA concentrations were added. Groups: Blank, TPA (0.1 ng/ml), TPA (1.0 ng/ml), TPA (5 ng/ml), TPA (10 ng/ml), TPA (20 ng/ml), TPA (30 ng/ml). • 3) Cultivation of BMSCs from healthy persons and patients of AML in the bone marrow suppression phase in vitro, added to TPA of different concentrations, 0.1 ng/ml, 1.0 ng/ml, 5 ng/ml, 10 ng/ml, 20 ng/ml, 30 ng/ml, and set up a control to detect cell proliferation or inhibition with CCK8 method. Results and Conclusion: • 1. Compared the clones of four groups in incomplete medium, in the control group a small cell clusters can be seen for 24-72 hours, but the cells were dead as time prolong. Cultivated 14 days, control group have no clones formation, CFU-GM are dominated for G-CSF group, TPA alone and combination with G-CSF group have myeloid colony formation, while BFU-E and CFU-GEMM. […] Compared the clones of different concentration of TPA stimulation in incomplete medium, the total clones of 5 ng/ml, 10 ng/ml, 20 ng/ml group are higher than other groups, including 10 ng/ml in the highest, there are statistical significance (both P<0.05). While decreasing or increasing TPA concentration can not improve the colony number. The better concentration of TPA to stimulate the colony formation is 5˜20 ng/ml. […] Compared the clones of different concentration of TPA and G-CSF (50 ng/ml) stimulation in incomplete medium. Combination with G-CSF the better concentration of TPA is 1˜10 ng/ml (both P<0.05). Combination with G-CSF the best concentration of TPA is 5 ng/ml and 1 ng/ml. for CFU-GM and CFU-GEMM. The main clone types are myeloid colones, CFU-GM, also have CFU-GEMM and fewer BFU-E. • 4. […] While TPA group and G-CSF group the number of clones of TPA group and G-CSF group have no statistical significance (P=0.577). • 5. […] Meanwhile, TPA promote bone marroe stromal cells from the AML patients proliferation of concentration 5˜30 ng/ml (cell number 2×10^5/ml). 5 ng/ml of TPA is the best concentration of promoting proliferation, and G-CSF had no effect on the growth of BMSCs from healthy persons or AML patients.

Assay [6] concerns neutropenia and thrombocytopenia. The assay can be described thus: AML (M2) patient case after DA regimen chemotherapy. The format is in vivo, human. Here is the method:
Patient, diagnosed with AML (M2). Patient's bone marrow myeloblast plus promyelocyte count was about 60%. After they received one standard course of DA regimen (7 Ara C+3 Daunorubicin), their peripheral WBC count dropped to 0.8×10^9/L. They were then administered 150 μg G-CSF each day. After chemotherapy, it took 12 days (duration of neutropenia and thrombocytopenia) to bring both their platelet count and WBC count, including the neutrophil count, back to normal. Their bone marrow myeloblast plus promyelocyte count was about 40%, still way above the normal value (0˜5%). Then, they received their second standard course of DA regimen. After the second course of DA regimen, their peripheral WBC count and platelet count dropped to 0.6×10^9/L and 80×10^9/L respectively. They were then administered TPA plus G-CSF (150 μg TPA followed with 150 μg G-CSF) each day of day 1 and day 2. On day 4 and day 5, they were administered with only 150 μg TPA each day. The WBC counts and neutrophil percentage* in parenthesis were 1.8×10^9/L (39%) on day 3, 6.5×10^9/L (72%) on day 7, and 5.7×10^9/L (77%) on day 14. The estimated duration of neutropenia after chemotherapy was shortened to about 5 days. The platelet counts were 330×10^9/L on day 3, 715×10^9/L on day 7, and 568×10^9/L on day 14. The estimated duration of thrombocytopenia after chemotherapy was shortened to less than 3 days. […]

Setting [7] is: 8 days after DNR + Ara-c, 1 day after 1st dose, G-CSF 10, EPO 500, TPA 12.5, TPA + GCSF 12.5 + 10, TPA + EPO 12.5 + 500 (μg·kg^−1).
Where [8] appears, read: 9 days after DNR + Ara-c, 1 day after 2nd dose, G-CSF 10, EPO 500, TPA 12.5, TPA + GCSF 12.5 + 10, TPA + EPO 12.5 + 500 (μg·kg^−1).
[9] abbreviates: 10 days after DNR + Ara-c, 1 day after 3rd dose, G-CSF 10, EPO 500, TPA 12.5, TPA + GCSF 12.5 + 10, TPA + EPO 12.5 + 500 (μg·kg^1).

As to “EPO: erythropoietin, a glycoprotein hormone that controls erythropoiesis, or red blood cell production”, in assay [1] (setting [7]), the PLT is 385 ± 19.28^(1)(1)(2)(2) ×10^9/L, the RBC is 7.32 ± 0.10^(1)(1)(2)(2) ×10^12/L and the WBC is listed as 3.7 ± 0.69^(1)(1) ×10^9/L. In assay [1] (setting [8]), the PLT is reported as 935 ± 43.57^(1)(1)(2)(2) ×10^9/L, the RBC is 6.75 ± 0.69^(1)(1)(2) ×10^12/L and the WBC was 5.52 ± 0.34^(1)(1) ×10^9/L. Besides, in assay [1] (setting [9]), the PLT is 1469 ± 75.67^(2)(2) ×10^9/L, the RBC was 8.51 ± 0.86^(1)(1)(2)(2)(3)(3) ×10^12/L and the WBC is 6.45 ± 0.41^(3)(3) ×10^9/L.

B1: G-CSF: granulocyte-colony stimulating factor, a glycoprotein that stimulates the bone marrow to produce granulocytes and stem cells (protein, UniProt P09919 31-207, looked up)
Granulocyte …: TPLGPASSLPQSFLLKCLEQVRKIQGDGAALQEKLVSECATYKLCHPEELVLLGHSLGIPWAPLSSCPSQALQLAGCLSQLHSGLFLYQGLLQALEGISPELGPTLDTLQLDVADFATTIWQQMEELGMAPALQPTQGAMPAFASAFQRRAGGVLVASHLQSFLEVSYRVLRHLAQP
Take B1: the “effect on the growth of BMSCs” value in assay [2] and in assay [4] was “had no effect” in each case. The duration of neutropenia entry in assay [3] is on record as “about 24±3 days”. In addition, the values for the PLT in assay [1] (setting [7]), in assay [1] (setting [8]) and in assay [1] (setting [9]) were 373 ± 76.27^(1)(1)(2)(2) ×10^9/L, 949 ± 65.88^(1)(1)(2)(2) ×10^9/L and 1456 ± 91.76^(2)(2) ×10^9/L, respectively. Moreover, the results for the RBC in assay [1] (setting [7]), in assay [1] (setting [8]) and in assay [1] (setting [9]) were 4.94 ± 0.42^(1)(1) ×10^12/L, 5.40 ± 0.46^(1)(1) ×10^12/L and 5.30 ± 0.34^(1)(1) ×10^12/L, respectively. For the same molecule, the figures for the WBC in assay [1] (setting [7]), in assay [1] (setting [8]) and in assay [1] (setting [9]) were 5.3 ± 0.62^(1)(2)(2) ×10^9/L, 6.95 ± 0.44^(2) ×10^9/L and 9.14 ± 0.67^(1)(1)(2)(2) ×10^9/L, respectively. In addition, the “colony types whose formation is promoted (CFU-GM, CFU-GEMM, BFU-E)” value in assay [5] (bone marrow of AML patients in the period of bone marrow suppression, in vitro) is “promoted the formation of CFU-GM, but had no effect on CFU-GEMM and BFU-E”. In assay [5] (incomplete medium, cultivated 14 days, TPA 10 ng/ml, G-CSF 50 ng/ml), the “total number of clones” value is listed as “higher than control group”. Also, the “bone marrow myeloblast plus promyelocyte count” value in assay [6] (after first DA course and 150 μg G-CSF each day) is given as “about 40%”. Also, the “duration of neutropenia and thrombocytopenia” value in assay [6] (after first DA course, 150 μg G-CSF each day) was determined as 12 days.
